Laboratory results published in patent US20110300138A1 (published 2011).
Values belong to the molecule of their own block, whether it stands above or below them.

Experiments:
[1] = molecular target: thyroid stimulating hormone receptor (TSHR), full length human TSHR (human) (UniProt P16473); test: TSH-biotin competition ELISA, TSHR coated wells; 10 µg/mL in assay buffer
[2] = molecular target: thyroid stimulating hormone receptor (TSHR), full length human TSHR (human) (UniProt P16473); test: TSH-biotin competition ELISA, TSHR coated wells; 10 µg/mL in HBD serum
[3] = molecular target: thyroid stimulating hormone receptor (TSHR), full length human TSHR (human) (UniProt P16473); test: TSH-biotin competition ELISA, TSHR coated wells; 0.01 µg/mL in HBD serum
[4] = molecular target: TSHR (full length) coated on tubes (human) (UniProt P16473); test: inhibition of 125I-K1-18 Fab (competitor) binding to TSHR coated tubes; test sample 0.1 µg/mL in HBD serum
[5] = molecular target: TSH receptor (TSHR), full length human, coated on tubes (human) (UniProt P16473); test: inhibition of 125I-K1-18 IgG binding to TSHR coated tubes; competitor 125I-K1-18 IgG; sample at 0.1 µg/mL in HBD serum
[6] = molecular target: TSH receptor (TSHR), full length human, coated on tubes (human) (UniProt P16473); test: inhibition of 125I-K1-18 IgG binding to TSHR coated tubes; competitor 125I-K1-18 IgG; sample at 10 µg/mL in assay buffer
[7] = molecular target: TSH receptor (full length human TSHR) (human) (UniProt P16473); test: competition ELISA: inhibition of M22 Fab-peroxidase (competitor) binding to TSHR coated wells; test sample at 10 µg/mL diluted in HBD serum pool
[8] = molecular target: TSHR (full length) coated on tubes (human) (UniProt P16473); test: inhibition of 125I-K1-18 Fab (competitor) binding to TSHR coated tubes; test sample 1 µg/mL in HBD serum
[9] = molecular target: human TSH receptor (full length) coated on ELISA plate wells (human) (UniProt P16473); test: TSH-biotin binding inhibition ELISA, TSHR coated wells; 0.001 µg/mL in assay buffer + 100 µg/mL 5B3 IgG
[10] = molecular target: TSHR (full length) coated on tubes (human) (UniProt P16473); test: inhibition of 125I-K1-18 Fab (competitor) binding to TSHR coated tubes; negative control 10 µg/mL in assay buffer
[11] = molecular target: human TSH receptor (full length) coated on ELISA plate wells (human) (UniProt P16473); test: TSH-biotin binding inhibition ELISA, TSHR coated wells; 100 µg/mL in assay buffer + 100 µg/mL 5B3 IgG; negative control MAb
[12] = molecular target: thyroid stimulating hormone receptor (TSHR), full length human TSHR (human) (UniProt P16473); test: TSH-biotin competition ELISA, TSHR coated wells; negative control, 0.01 µg/mL in HBD serum
[13] = molecular target: human TSH receptor (full length) coated on ELISA plate wells (human) (UniProt P16473); test: TSH-biotin binding inhibition ELISA, TSHR coated wells; 1 µg/mL in HBD serum pool; negative control MAb
[14] = molecular target: TSHR (thyroid stimulating hormone receptor), full length human (human) (UniProt P16473); test: negative control; competitor ^125I-K1-70 IgG, TSHR coated tubes; 0.01 µg/mL in HBD
[15] = molecular target: TSHR (thyroid stimulating hormone receptor), full length human (human) (UniProt P16473); test: negative control; competitor ^125I-K1-70 IgG, TSHR coated tubes; 10 µg/mL in HBD
[16] = molecular target: thyroid stimulating hormone receptor (TSHR), full length human TSHR (human) (UniProt P16473); test: TSH-biotin competition ELISA, TSHR coated wells; negative control, 10 µg/mL in assay buffer
[17] = molecular target: thyroid stimulating hormone receptor (TSHR), full length human TSHR (human) (UniProt P16473); test: TSH-biotin competition ELISA, TSHR coated wells; negative control, 1 µg/mL in assay buffer
[18] = molecular target: thyroid stimulating hormone receptor (full length human TSHR) (human) (UniProt P16473); test: ELISA, inhibition of TSH-biotin binding to TSHR coated wells; 1 µg/mL, diluted in assay buffer
[19] = molecular target: human thyroid stimulating hormone receptor (TSHR), full length (human) (UniProt P16473); test: 125I-K1-18 Fab competition, TSHR coated tubes; 10 µg/mL in HBD
[20] = molecular target: thyroid stimulating hormone receptor (full length human TSHR) (human) (UniProt P16473); test: ELISA, inhibition of TSH-biotin binding to TSHR coated wells; 0.01 µg/mL, diluted in HBD serum pool
[21] = molecular target: TSH receptor (TSHR), full length human, coated on tubes (human) (UniProt P16473); test: inhibition of 125I-K1-18 IgG (competitor) binding to TSHR coated tubes; test sample at 10 µg/mL in assay buffer
[22] = molecular target: thyroid stimulating hormone receptor (full length human TSHR) (human) (UniProt P16473); test: ELISA: inhibition of M22 Fab-peroxidase (competitor) binding to TSHR coated wells; 10 µg/mL, diluted in HBD serum pool
[23] = molecular target: human TSH receptor (full length) coated on ELISA plate wells (human) (UniProt P16473); test: TSH-biotin binding inhibition ELISA, TSHR coated wells; 100 µg/mL in assay buffer
[24] = molecular target: TSH receptor (TSHR), full length human, coated on tubes (human) (UniProt P16473); test: inhibition of 125I-TSH binding to TSHR coated tubes; 0.01 µg/mL, diluted in assay buffer
[25] = molecular target: TSH receptor (TSHR), full length human, coated on tubes (human) (UniProt P16473); test: inhibition of 125I-TSH binding to TSHR coated tubes; 0.01 µg/mL, diluted in HBD serum pool
[26] = molecular target: TSH receptor (TSHR), full length human, coated on tubes (human) (UniProt P16473); test: inhibition of 125I-TSH binding to TSHR coated tubes; 0.1 µg/mL, diluted in assay buffer
[27] = molecular target: human thyroid stimulating hormone receptor (TSHR), full length (human) (UniProt P16473); test: 125I-K1-18 Fab competition, TSHR coated tubes; 100 µg/mL in HBD

Molecule: M22 IgG (antibody)
% inhibition of TSH-biotin binding [9]: -7.7%

Molecule: 5B3 IgG (antibody)
Inhibition of binding (%) [10]: 0.6%
% inhibition of TSH-biotin binding [11]: 1.1%
Inhibition of binding (%) [12]: -5.1%
% inhibition of TSH-biotin binding [13]: 8%
Inhibition of binding (%) [14]: -5.8%
Inhibition of binding (%) [15]: -1.5%
Inhibition of binding (%) [16]: -8.4%
Inhibition of binding (%) [17]: -8.3%

Results, then the molecule that gave them:

Inhibition of binding (%) [1]: 84.8%
Inhibition of binding (%) [2]: 83.2%
Inhibition of binding (%) [3]: 10.1%
Inhibition of binding (%) [4]: 32.2%
Inhibition of binding (%) [5]: 33.8%
Inhibition of binding (%) [6]: 63.2%
Inhibition of binding (%) [7]: 66.7%
Inhibition of binding (%) [8]: 64.8%
Molecule: 9D33 IgG (antibody)

Inhibition of binding (%) [18]: 31.4%
Inhibition of binding (%) [19]: 49.8%
Inhibition of binding (%) [20]: -2.6%
Inhibition of binding (%) [21]: 65.9%
Inhibition of binding (%) [22]: 13%
% inhibition of TSH-biotin binding [23]: 91.2%
Inhibition of binding (%) [24]: 8.3%
Inhibition of binding (%) [25]: -5.5%
Inhibition of binding (%) [26]: 24.4%
Inhibition of binding (%) [27]: 61.3%
B1: 5C9 IgG (antibody, from another filing, V domains shown)
VH: EVQLVESGGGLIQPGGSLRLSCAASGFTVSSNYMSWVRQAPGKGLEWVSVTYSGGSTSYADSVKGRFTISRDNSKNTLYLQMNSLRAEDTAVYYCARGGRYCSSISCYARSGCDYWGQGTLVTVSS
VL: AIQMTQSPSSLSASVGDRVTITCRASQSISNYLNWYQQKPGKAPKLLIYAASSLQSGVPSRFSGSGSGTDFTLTISSLQPEDFATYYCQQSYSSPSTTFGQGTKLEIK
